Data from the domain aggregation screens of Martell et al. (2025).

Experiment: soluble fraction after stress (log2 fold change); higher = more stays soluble; pooled small domains, quantitative proteomics
Details: stress: 75 degC
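Also: 20 min heating vs room temperature control held 20 min.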

Row | Sequence | soluble fraction (log2)
1 | HMPRKLDDQLQEQIRYLKSNYPRMSAAGIFRQLQDNGSIKHGDVSESTINRYVNLLSIEMKTTT | -0.395
2 | HMPRNMTFAIRGEYITLDALLKAVGAADSGAQAKHRIAEGEVTVDGVVETRKTRKLRGGETVVVDDLAVVL | -0.734
3 | HMPRQREVPDVSGWTEQHAKVYLEALGYRVKVIYLEVSSFDKGLVQETSPAKGSKVEEGDTIDLRVSNQE | -2.64
4 | HMPRSLGADLRAIRKGRRLTLTDMAEALDRSVGWVSQVERDISTPSISDLRRMAEILDVPVSLLFG | -3.17
5 | HMPSARELLATNIVRLRKEKGWSQEDLALEAGLHRTFVAHVERHARNISLDNIERLANALQVNVHILLL | -3.81
6 | HMPSEDELAERLRGAIRQGDILNEGRMPPERALAEHFGVSRARLRLALGLLQEDGTIYRRHGQGTFAT | -0.308
7 | HMPSIGKNILYYRKKRNMTIDELSKKSGVSKSMLSQVEQEKTNPTVVTVWKIARSLDVSINQLLQT | -2.83
8 | HMPSKKHARWIELEARKFMADNEDAVSDLHELRTRAANFAALKTSTLPVDQHRAIVAGFVARVNELGRRI | -1.02
9 | HMPSLSPDETVVVDALRQQNDMQINMISVKTNLPIARLSAILFEMELKGVLKPLAGGVYHLL | -2.3
10 | HMPSPEMLKETEKRKAEEIYRSQINLFIDDYHRLKGQYPLLEDIIDNKKDSIPIEILREISISILKNYFE | -0.802
11 | HMPSPEVELLEDLLSKTDEAEVEAAFHENQALVNDEFKAMLGSLIQELSKTQEADPEIIARIRFIQKLT | -0.128
12 | HMPSREDFAYDSIKEAILSGELLPNQKISLSDLANKLGISIIPVNSAVGRLVAEGLVRQDPHHSPYVV | 0.481
13 | HMPSRPIQVASFSKEDNAKRAAEALAKIGVTATPQKSEKAGKAVWGVVVTGDDAMLQKIKDAGFADAYFL | 0.0515
14 | HMPSTKDGIKEFLSSGAMKGIGRKTASAIVSRFGIDTLKIIEQEPQRLTEVSGIGKKTAQRIAEAFGKH | -0.26
15 | HMPSTVRVPDVAETSLSEAKKTIEESGLEVGAIHKVNNDTVKKNHVIKTSPTIGSAKKEGSAIDIYVSKG | -0.0483
16 | HMPSTVSVPDVAGSSLSEAKTTIKSSGLKVGTVHKVSSDTVESGYVIKTSPTAGSSKKEGSSIDIYVSKG | ≥ 1.04
17 | HMPTANFPAMAEALKKQYGPPTGEEETSWTHRLGGVFDIKIQSWNTPQGEMVLRSRGAAMDAGML | 0.385
18 | HMPTEPTARELEVTTLLAQGLSNREIAGALFISEHTVRNHLGHVFSKLGVSSRTQAVVRAGQLGWLR | -2.54
19 | HMPTKSDLLQWIKDRASKMGGAFTNSGAYALADAGVDGPRALSSEINKLLTYVNWERSVEADDVIRL | -0.455
20 | HMPTLTPFDVARIENAINPRLNLETAAKLKPWIAAGYTAQETADGTGFSPDTVKKYAAIFRK | -0.0357
21 | HMPTQTEELRRRIVADVNAGEPGAKLGSERELAERYGTSRSSLRQVLAALQEAGLIDRVIGRSGGIFISH | -0.0502
22 | HMPTSILEKILNSAAEQFTRYGFKTITMDDIARHAGVSKKTLYQHFETKLDIIVAAVTHFHTMKF | -1.62
23 | HMPTYEEAKTYLKAAFEHIVAAGRDVGELVEFAFAKSGDAVAPYLRRFLSDVHEGRITIQGLTESAKLAV | 0.292
24 | HMPVEQVWHIAEAGKTKGPFSRASMGRMSADGALTRDTLVWTAGQDGWKKAADVTALATLFT | 0.0108
25 | HMPVFYATNRQKTTIHNLKRKKGLDDDAYRATIYSFTHGRTDSSKYMYKYEAAELIQKWLDPE | -1.49
26 | HMPVGVPGVVYNTDSLNVRKGAGTNYDIVSKLKRGSVIEVLEQTAVDGTVWGRIAEGWVNMEYVSL | -1.04

Row | Sequence | soluble fraction (log2)
27 | HMPVSDLQSALRNTLSKGDATDPAFRQRVYRAAMDALERATGSESDPQRRSEQKQRLIAVIRDMEASYRR | 0.157
28 | HMPVTKSARQSRIGELIAREPVRSQSELAARLADDGIVVSQGTLSKDLLELGAVRVRTSSGELAYALL | 0.0547
29 | HMPWLIAVTVDGVNLPRFLRRAGEMGLLLTGVRIRGKHLSAFAREDDVPPLRMMAENGGWRFSVGN | -2.23
30 | HMPYEHQRAVGALIRRLREQQGWSQRALADWVHMDQSAVSRVETGQRSVTAEELGRFADALHVSTDALVR | -0.263
31 | HMPYFLKQSNTRSKGLYLQIYHSFYVPGKGSRNKSYKAIGYVSELIKNGIEDPITYAKNLVDELNNNSSTP | -3.82
32 | HMPYPSPADLARMDELIAWVKDEGRLPRDRSGQRSERSMARWLAARRREAAEGTLDPAYRDGLAQVPGWR | -0.497
33 | HMPYSAAVTFLDDAKQPMVNYNYRLIAENGIEVSGITDEFGKTQPIQTDQREKVDLYIADLPN | 0.693
34 | HMQAALEVQASAGVLAPVPPDQRQALLDTLAQDPRPGYQHEAGRVYGFPFGGFEVRFTVSDGLLTVLSAYK | -1.82
35 | HMQAATQVNIVGLFSNKAVVIINGGKPKTLSVGQTSEGVKLLAADSQTATLQIEGKTQQLGMGQAASVGG | -0.758
36 | HMQAESLTVVRSAELKADRFLDAATLQTLQTGQVVESLRTESGWVQVRIAGQQGWVRAMNVKGA | -1.1
37 | HMQAITVNNEGKIFLNTIPVTLEELSSKLESLKSSTPEFPVVIRGDSGSQYQGIMDVLNVVGRLGITQIGL | -0.708
38 | HMQAKDVEVPDYVGKSFVSIKENNPNDFKFEVKSEYDESKEMGVILDQEPKGGSMKVKSGSTITVTV | 0.156
39 | HMQASPADLLSDRELEVFQLTGEWKTTRQIAQELHLSVKTIEYYREQIKRKLNLKSAAELTQHATAWVQRG | -2.93
40 | HMQDAVASEKIQLMSEALHARDTGDLLLAKEKVEKLIALAPNDKNIQALLLTINQSIEDKGL | -0.112
41 | HMQDIDIVDLKRISELIYQKYNYDFRNYAMSSFKRRVQRIIELKKLTVDGLIKRLNDTPSFINEFLDELTV | -0.014
42 | HMQDNLKKYMDKLSQRDAELIVYKYLWNMSEKEISEMFHIKQEQVHVYVGRAKKRLFKIIKKEME | -0.425
43 | HMQDRDKNIEEGRQLVLHEMDRLDLVDEPLHDVARQLNMKAVEDMFAAVGAGDLRLGQIIHQLLKQADTN | -0.215
44 | HMQDSIYYAQYRINIRNMPSSEGMVISRASVGEALEVLDWQEQWSKVRKQSGVEGYVASRLLTK | -2.34
45 | HMQDTIDLVIQVNGKLRGQMNVPKDTDRATIEQLAINLENVQKIVAGNAIKKIIIVPGRLINIVVSKNL | -2.78
46 | HMQDTYQVKLLTNLNIRKSPNGTIVQKGGAKKGIIYTIVETSGTWGRLKSNAGWISVSDKYVTK | -3.58
47 | HMQDVKRYLVNSNQLNVRTGPGKEFEISESLNKGDAVTLLHKESNGWWEVITSTGQGYVYSSMLTKDPW | -0.735
48 | HMQDVVERIKKYKQLFSITSEELSKRSGIPLGTLNKILSSSTKSIKTETLAAIAKGLDVSVSDLVGREK | -0.251
49 | HMQEAGKWLKKLRTERKITLEQLSKKTGLSVGFLSQFERGLTSIAIDTLEKIAAVFNVTIDYFISP | 0.0548
50 | HMQEEFVAPDVKDGAIVLHKAFGEGTVTKIDKAQKHIRVTFGVGEKTFIFPDAFKQGFLRMKG | 0.303
51 | HMQEERLTFDTLLGISGIGPRLALAVLSRFTPGSLAAAVDAGDTKAFSAVPGVGNRTASRIILELKGKL | -0.748
52 | HMQEGPGLVPDFRGQTMREVLRGGQSLGVRVAVDGTGLAVAQTPEPGSPLNKVSQVTVSFRPP | 0.0233

Row | Sequence | soluble fraction (log2)
53 | HMQEINLIGVTGNDLERSALVKLLDGEIIKLSVGDNLNGGRVVDISAVTLTYLKSGQSITLKLPK | -2.9
54 | HMQELGVISEGKYNIELNMVSWNDREPKYDIRSWAPDHSRMGKGISLTEEEMERLVELWNTRNE | -0.441
55 | HMQELKWERNYKLVQDYIKQYGVLPSKNTKYANVSIGRWLTNQHELVKEDNLAPERFEKIKELDT | -0.297
56 | HMQENDLGAVEKIVDDVLHDPKNAQAVADFKAGSEKVLGFLTGQVMKASRGKANPSVVQEVLRQKLKN | -0.314
57 | HMQENVIIYPNPTKSVIYLSEKVEFILYNILGEIIFIGDNNKIDLNSFDNGVYIFESGNVRTQIIK | 0.0395
58 | HMQEQIVQGIVKYFDAEKQFGFIAGDDGVDRFFNAKSIQGNAVKTGDRVRFLAISHIRGPRALKISA | -1.24
59 | HMQEQSSYVGQFGTAATTLRPSGTVELEDGTRIDVVTVGEFIEKGEPVQVVRKDGTWLVVEKRRSK | 0.976
60 | HMQERKYTVSFNTNGGSTINDQKITSGNVIISPGAPKRSGYTFVGWYYHGQPFDLNTKINQDYVLVAKWIK | -2.49
61 | HMQETILFGQQKAINNLSSDTGLSENDLDSYLKKRYKKPLYQLTQSEGADIINGFQDGSLSKNSILDYIKP | 0.173
62 | HMQEVKVRLKPDYLGEVLIKVISDKGELKAELFVSNSQVRSLLRAYAVEFQNQIRDQGYNFSEINVYR | -0.738
63 | HMQFAEIPNFSEMALQILRLQADGLSITKIAEALHMNPRTVKYHAQENYRKLQASNKSEALLAARNLNL | -1.85
64 | HMQFEIGDTVRVHVNIREGERERVQMFEGTVIAKRGSGVSETFTVRRVSYGVGVERVFPVNSPNV | 0.437
65 | HMQFETVQDAFNHYRNASLEEIESRAAEIKGIIESDPEADVRALNIEIEGLHQAKQNILEKQKTK | -0.179
66 | HMQFLGKVTVTHARQANLRAQPSMDAAIVGKVNPGEVYNVVSIPKTSWYEIQLQNGKTVFIAAGMVSFRM | -0.441
67 | HMQFSAVVLDMETRRQVAGVAVYINPKGVVKTDMRGRFVIDGAFNSVTLVRQGYESLTLERSEMTDSIWM | -1.64
68 | HMQGEASDAQLKAIFAIARKLGITDDFEVHRKASRLAGVPEPEVLPSLKSLTYAQASAVIKALQEELE | 0.248
69 | HMQGENDVTIDPKKLTIGDLAKEISKIEDSEELNNILVAEKEGKGRKGAINAITERIENVSGGTG | 0.0455
70 | HMQGLIGEQKAIQIALSRVPGAKPEHVRELKLDYDDGMQLYEGEIFYNFREYEFEINAVTGEVVGWEI | -1.01
71 | HMQHRSRALHLQEELVRRYYDQAIAPFMIFWEMKANVTLDQLKELRAVVSPSLNEHPYTKQLDEYIRLAE | -0.595
72 | HMQIEQVDYGTFMTMIDDKKIDKVEIKDNQILFIGKDDNKKYKTGIVQDPQLAERLHASGAVFSQDI | 0.261
73 | HMQIIGEQNQKDFIALFGAILRMRNLLLSFDEFKGNELISERDLQDYLGRYQDLRDEWRNKRRER | -0.0814
74 | HMQINDSSVVQKAVNDVIDQNSKAVSDYWDGKEGAAKFLMGQVMKLTRGQANPDLANQLILTRLQQERV | 0.437
75 | HMQISDEAALLAIVDRVIADNQGPLANYLGGKQSLLGWFVGQVMRATRGQAIPAVVNRLVGERLAAQREE | -0.877
76 | HMQISDESQLREVVSKILEENEQSVIDYKNGKTRAMGFIIGQVMKATRGKANPQLVNEIVKEMLDE | 0.0956
77 | HMQISDTASIQEIAKEIIKSNPKAVEDYKKGKENALQFLVGQLMTKTKGTVHPGAARTILGDILK | -0.0025
